Reference: US20100254901, “Compositions comprising nucleic acid aptamers” (published 2010)

Key:
[1] = system: Bovine gamma globulin (BGG) (Bos taurus); test: FP; conditions: control protein
[2] = target: Bovine serum albumin (BSA) (Bos taurus, UniProt P02769 P02769:25-607); test: FP; control protein; conditions: label: 5'-fluorescein
Excerpt: (§1) A fluorescent polarization (FP) assay was used to test the affinity of several oligonucleotide sequences to CEA (Table 4). The initial studies focused on 5 oligonucleotides. Clone 22 and clone 26 contained the sequences with the highest identity to the G-rich motif. The aptamers were synthesized with fluorescein at their 5′ ends and binding was analysis using the Beacon 2000 instrument equipped with a 530 nm emission filter and a 490 nm excitation filter from Pan Vera Corp. (Madison Wis.).
(§2) In the FP assay, fluorescently labelled aptamers are added to the protein. Binding is detected by an increase in fluorescent polarization cause by the decrease in rotation of the protein bound fluorescein (FIG. 4A). The Kd is calculated by determining the CEA concentration at the half maximal mP value as determined from plots of averaged stable mP data as shown in FIGS. 4B and C. […] Unfortunately, others members of the CEA superfamily are not available commercially.

[3] = target: T1, Carcinoembryonic antigen (CEA) (Homo sapiens, UniProt P06731 P06731:35-685); test: FP; physiological binding buffer; conditions: tags: Calbiochem; label: 5'-fluorescein
T1 sequence (P06731 35-685, one chain of several): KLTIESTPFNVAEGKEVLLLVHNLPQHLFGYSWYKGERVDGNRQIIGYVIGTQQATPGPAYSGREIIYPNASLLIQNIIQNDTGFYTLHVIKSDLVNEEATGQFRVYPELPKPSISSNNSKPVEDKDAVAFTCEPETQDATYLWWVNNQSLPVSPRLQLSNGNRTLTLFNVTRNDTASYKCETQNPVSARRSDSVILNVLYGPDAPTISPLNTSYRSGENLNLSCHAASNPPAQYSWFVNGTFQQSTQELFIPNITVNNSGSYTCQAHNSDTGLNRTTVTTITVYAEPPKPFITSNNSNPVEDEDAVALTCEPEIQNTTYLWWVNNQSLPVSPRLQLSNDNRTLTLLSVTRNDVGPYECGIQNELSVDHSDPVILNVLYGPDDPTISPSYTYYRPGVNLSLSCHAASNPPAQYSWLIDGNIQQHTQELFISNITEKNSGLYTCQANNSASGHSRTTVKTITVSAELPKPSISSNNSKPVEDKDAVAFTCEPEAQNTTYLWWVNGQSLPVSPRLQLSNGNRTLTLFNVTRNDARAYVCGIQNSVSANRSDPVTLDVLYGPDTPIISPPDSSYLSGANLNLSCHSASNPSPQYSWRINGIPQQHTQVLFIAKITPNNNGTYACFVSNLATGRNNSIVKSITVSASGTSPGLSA
Excerpt: as §1, §2

[4] = target: T1, Carcinoembryonic antigen (CEA); test: FP; physiological binding buffer; table header prints nM-1, text nM; conditions: tags: Calbiochem; label: 5'-fluorescein
Excerpt: as §1, §2
FIG. 4. Binding of clone26bases 1-50 to CEA monitored by FP in a physiological binding buffer using 4 nM aptamer. (A) Shown is the mP as a function a reading number (sample #). CEA (8 nM) was added after the tenth reading. (B) Shown is the average mP vs aptamer concentration. (C) Shown is the average mP vs CEA concentration within the linear range.

[5] = target: T1, Carcinoembryonic antigen (CEA); test: FP; primer region absent; physiological binding buffer; conditions: tags: Calbiochem; label: 5'-fluorescein
Excerpt: as §1, §2

Chain of Bovine serum albumin (BSA) (P02769 25-607, one chain of several): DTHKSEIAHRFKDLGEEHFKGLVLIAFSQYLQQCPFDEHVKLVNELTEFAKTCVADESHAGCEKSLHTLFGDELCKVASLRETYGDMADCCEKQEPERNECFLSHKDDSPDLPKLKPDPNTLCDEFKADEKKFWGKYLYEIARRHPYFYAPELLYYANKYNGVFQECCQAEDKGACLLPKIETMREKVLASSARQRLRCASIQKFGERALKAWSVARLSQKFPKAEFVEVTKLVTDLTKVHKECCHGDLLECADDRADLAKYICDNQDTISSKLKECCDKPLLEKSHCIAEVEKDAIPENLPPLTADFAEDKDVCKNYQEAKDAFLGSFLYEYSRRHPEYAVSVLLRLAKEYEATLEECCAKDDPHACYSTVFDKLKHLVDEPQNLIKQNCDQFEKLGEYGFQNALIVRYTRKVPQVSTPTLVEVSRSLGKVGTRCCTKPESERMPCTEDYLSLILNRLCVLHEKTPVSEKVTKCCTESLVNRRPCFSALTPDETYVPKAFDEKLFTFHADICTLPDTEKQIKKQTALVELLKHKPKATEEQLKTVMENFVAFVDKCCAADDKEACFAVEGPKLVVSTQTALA

Molecule	Kd [1]	Kd [2]	other results
ATACCAGCTTATTCAATTGGGGGAGGGGGCGACGCGATACCC [clone22bases1-42]	500 nM		
ATACCAGCTTATTCAATTGGGGTAGGGGGCGAAGCGATACCCTAATCAGC [clone26bases1-50]	100 nM		
GGGGGAGGGGGCGACGCGATACCC [clone22bases19-42]	250 nM		
ATACCAGCTTATTCAATT [5' primer]	400 nM		
ATACCAGCTTATTCAATT (ssDNA) [5' primer]		300 nM	Kd [3]: 5 nM
ATACCAGCTTATTCAATTGGGGTAGGGGGCGAAGCGATACCCTAATCAGC (ssDNA) [clone26bases1-50]		100 nM	Kd [4]: 4 nM
ATACCAGCTTATTCAATTGGGGGAGGGGGCGACGCGATACCC (ssDNA) [clone22bases1-42]		200 nM	Kd [3]: 5 nM
GGGGGAGGGGGCGACGCGATACCC (ssDNA) [clone22bases19-42]		400 nM	Kd [5]: 20 nM
